Experimental findings from paper PMC10966351 are described below.

For orientation: stoichiometry N means the number of molecules, sites or subunits per partner or assembly.

In the test the target is BlaC P107T (Mycobacterium tuberculosis). Description: crystal structure; sitting-drop vapor diffusion at 20°C, protein 10 mg/mL in 100 mM sodium phosphate buffer pH 6.4; four molecules in the asymmetric unit.

BlaC P107T (enzyme) came in with a stoichiometry N of 2.
